± gives the standard deviation of the averaged measurements.
B1: library; a variant is named by its letters at N, in order (parent)
chain: GCUGUCACCGGUGCUUGGUACGUUAUAUUCAGCCGGUCUGAUGAGUCUNNNNNNAGACGAAACAGC

Key:
(6R,S)-folinic acid [1] = variants of: B1; assay: normalized RNA/DNA level without ligand (relative to sTRSVctl = 100) (log10 (% of sTRSVctl)); HEK293T overexpressing SLC46A1; higher = less ribozyme self-cleavage, higher mRNA level; conditions: without (6R,S)-folinic acid; ligand present: no
Outline: (§1)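 Library plasmids encoding reporter-linked ribozyme switches (mCherry, or eGFP for some folinic acid experiments) were transfected into HEK293T at 4 µg per 6-well well. Ligand, when used, was added 1 h before transfection. Total RNA was extracted with EDTA 72 h later, then reverse-transcribed, amplified, barcoded and sequenced. RNA level was RNA reads over DNA reads, divided by a spiked-in non-cleaving control (or the top 25 sequences), ×100, log10; only sequences with ≥100 DNA reads were kept.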

(6R,S)-folinic acid [2] = variants of: B1; assay: normalized RNA/DNA level with ligand (relative to sTRSVctl = 100) (log10 (% of sTRSVctl)); HEK293T overexpressing SLC46A1; ligand concentration (+) RNA-Seq: 6 mM; higher = less ribozyme self-cleavage, higher mRNA level; conditions: with (6R,S)-folinic acid; ligand present: yes
Outline: as §1

Row | Variant | normalized RNA/DNA level without ligand (log10) ((6R,S)-folinic acid [1]) | normalized RNA/DNA level with ligand (log10) ((6R,S)-folinic acid [2])
1 | ACCCCG | 1.998 ± 0.0083 | 1.99 ± 0.073
2 | ACCCCU | 1.997 ± 0.0056 | 1.98 ± 0.073
3 | ACCCCC | 2.04 ± 0.016 | 2.002 ± 0.015
4 | ACCCCA | 2.02 ± 0.011 | 2 ± 0.05
5 | GCCGGC | 2.049 ± 0.0034 | 1.98 ± 0.051
6 | GCCGGG | 2.086 ± 0.015 | 2.045 ± 0.003
7 | GCCGGA | 2.07 ± 0.036 | 2.02 ± 0.031
8 | GCCGGU | 2.067 ± 0.01 | 2.03 ± 0.034
9 | UCCACA | 1.985 ± 0.0093 | 2 ± 0.046
10 | UCCACC | 2.018 ± 0.017 | 2.03 ± 0.022
11 | UCCACU | 2.041 ± 0.0029 | 2.052 ± 0.014
12 | CCCUCU | 2.1 ± 0.026 | 2.09 ± 0.057
13 | CCCUCC | 2.07 ± 0.015 | 2.006 ± 0.014
14 | CCCUCG | 2.04 ± 0.025 | 1.997 ± 0.014
15 | UCAUUC | 2.067 ± 0.013 | 2.07 ± 0.021
16 | UCAUUU | 2.021 ± 0.014 | 2.02 ± 0.047
17 | CCCUGU | 2.1 ± 0.0073 | 2.102 ± 0.016
18 | CCCUGG | 2.101 ± 0.017 | 2.02 ± 0.022
19 | CCCUGC | 2.08 ± 0.025 | 2.08 ± 0.014
20 | CCCUGA | 2.088 ± 0.014 | 2.1 ± 0.051
21 | ACCCUG | 2.006 ± 0.013 | 2.032 ± 0.013
22 | ACCCUU | 2.02 ± 0.027 | 2.03 ± 0.044
23 | ACCCUC | 2.03 ± 0.031 | 2.02 ± 0.032

Row | Variant | normalized RNA/DNA level without ligand (log10) ((6R,S)-folinic acid [1]) | normalized RNA/DNA level with ligand (log10) ((6R,S)-folinic acid [2])
24 | ACCCUA | 2.018 ± 0.015 | 2.03 ± 0.022
25 | ACCACG | 2.023 ± 0.0076 | 2.061 ± 0.003
26 | ACCACA | 2.021 ± 0.0096 | 2.01 ± 0.021
27 | ACCACC | 2.087 ± 0.0062 | 2.06 ± 0.04
28 | ACCACU | 2.029 ± 0.0042 | 1.99 ± 0.066
29 | CCCCCC | 2.0694 ± 0.0015 | 2.02 ± 0.063
30 | CCCCCG | 2.05 ± 0.023 | 2 ± 0.0065
31 | CCCCCA | 2.023 ± 0.004 | 1.99 ± 0.047
32 | CCCCCU | 2.063 ± 0.017 | 2.01 ± 0.037
33 | ACCGUG | 1.92 ± 0.02 | 2.007 ± 0.015
34 | ACCGUC | 2.1 ± 0.03 | 2.07 ± 0.037
35 | ACCGUA | 1.969 ± 0.0072 | 2.01 ± 0.048
36 | ACCUAA | 2.021 ± 0.013 | 1.994 ± 0.018
37 | ACCUAC | 2.0248 ± 0.0018 | 2.02 ± 0.028
38 | GCCUGC | 2.052 ± 0.01 | 2.046 ± 0.013
39 | GCCUGG | 2.001 ± 0.011 | 2.03 ± 0.034
40 | GCCUGA | 2.036 ± 0.0063 | 2.07 ± 0.028
41 | GCCUGU | 2.057 ± 0.0027 | 2.06 ± 0.038
42 | UCCAAA | 1.982 ± 0.0034 | 1.986 ± 0.015
43 | UCCAAU | 1.953 ± 0.0052 | 1.96 ± 0.028
44 | UCCAAC | 2.067 ± 0.0087 | 2.06 ± 0.03
45 | UCCGUA | 1.96 ± 0.029 | 2.004 ± 0.0049
46 | UCCGUC | 2.1142 ± 0.002 | 2.0759 ± 0.0012

Row | Variant | normalized RNA/DNA level without ligand (log10) ((6R,S)-folinic acid [1]) | normalized RNA/DNA level with ligand (log10) ((6R,S)-folinic acid [2])
47 | UCCGUU | 2.049 ± 0.0025 | 2.05 ± 0.068
48 | UCCGGC | 2.08 ± 0.024 | 2.024 ± 0.018
49 | UCCGGA | 1.99 ± 0.038 | 2.02 ± 0.063
50 | UCCGGU | 2.032 ± 0.019 | 2.02 ± 0.052
51 | UCCGCU | 2.068 ± 0.01 | 2.042 ± 0.015
52 | UCCGCA | 2.01 ± 0.03 | 2.01 ± 0.063
53 | UCCGCC | 2.03 ± 0.021 | 2.0083 ± 0.00058
54 | UCCGAA | 1.941 ± 0.015 | 1.978 ± 0.019
55 | UCCGAC | 2.029 ± 0.013 | 2.031 ± 0.0089
56 | UCCGAU | 1.96 ± 0.026 | 2 ± 0.038
57 | GCCAAC | 2.033 ± 0.02 | 2.055 ± 0.011
58 | GCCAAU | 2.001 ± 0.0032 | 2 ± 0.053
59 | GCCAAG | 2.0227 ± 0.0017 | 2.04 ± 0.038
60 | UCCUAG | 1.849 ± 0.004 | 2.009 ± 0.0087
61 | UCCUAA | 1.981 ± 0.0064 | 2.018 ± 0.014
62 | UCCUAC | 2.024 ± 0.015 | 2.05 ± 0.026
63 | UCCUAU | 1.9805 ± 0.00094 | 2.03 ± 0.034
64 | GCCUAA | 2.006 ± 0.019 | 2.022 ± 0.012
65 | GCCUAU | 2.027 ± 0.018 | 2.065 ± 0.02
66 | GCCUAC | 2.056 ± 0.0034 | 2.086 ± 0.0065
67 | GCCUAG | 1.98 ± 0.023 | 2.05 ± 0.032
68 | ACCAAU | 1.955 ± 0.01 | 2.012 ± 0.0037
69 | ACCAAG | 2.0073 ± 0.00077 | 2.009 ± 0.014

Row | Variant | normalized RNA/DNA level without ligand (log10) ((6R,S)-folinic acid [1]) | normalized RNA/DNA level with ligand (log10) ((6R,S)-folinic acid [2])
70 | ACCAAC | 2.025 ± 0.012 | 2.02 ± 0.029
71 | CCCACC | 2.022 ± 0.0044 | 1.99 ± 0.021
72 | CCCACU | 2.103 ± 0.016 | 2.08 ± 0.062
73 | CCCACA | 2.05 ± 0.027 | 2 ± 0.034
74 | CCCACG | 2.014 ± 0.0016 | 2.03 ± 0.021
75 | CCCGCC | 2.0796 ± 0.00065 | 2.05 ± 0.03
76 | CCCGCG | 2.09 ± 0.023 | 2.01 ± 0.034
77 | CCCGCA | 2.06 ± 0.035 | 2.071 ± 0.02
78 | CCCGCU | 2.109 ± 0.014 | 2.08 ± 0.068
79 | CCCGGG | 2.019 ± 0.0077 | 1.987 ± 0.0062
80 | CCCGGA | 2.073 ± 0.016 | 2.03 ± 0.061
81 | CCCGGC | 2.08 ± 0.037 | 2.02 ± 0.065
82 | ACCCAG | 1.98 ± 0.01 | 2 ± 0.044
83 | ACCCAA | 2.02 ± 0.024 | 2.018 ± 0.013
84 | ACCCAU | 2.013 ± 0.01 | 2.01 ± 0.036
85 | ACCCAC | 2.02 ± 0.016 | 2 ± 0.044
86 | GCCCUC | 2.047 ± 0.015 | 2.03 ± 0.065
87 | GCCCUA | 2.034 ± 0.015 | 2.05 ± 0.032
88 | GCCCUG | 2.05 ± 0.023 | 2.04 ± 0.039
89 | GCCCUU | 2.021 ± 0.0059 | 2.01 ± 0.044
90 | CCCAUG | 2.044 ± 0.0075 | 2 ± 0.033
91 | CCCAUU | 2.09 ± 0.024 | 2.079 ± 0.01
92 | CCCAUA | 2.02 ± 0.036 | 2.03 ± 0.05

Row | Variant | normalized RNA/DNA level without ligand (log10) ((6R,S)-folinic acid [1]) | normalized RNA/DNA level with ligand (log10) ((6R,S)-folinic acid [2])
93 | CCCGAG | 1.95 ± 0.0086 | 1.99 ± 0.022
94 | CCCGAA | 2.029 ± 0.0067 | 2.02 ± 0.056
95 | CCCGAC | 2.043 ± 0.016 | 2.05 ± 0.033
96 | CCCGAU | 2.002 ± 0.016 | 2.017 ± 0.0026
97 | CCAUUG | 1.97 ± 0.031 | 2.015 ± 0.0036
98 | CCAUUU | 2.012 ± 0.018 | 2.04 ± 0.036
99 | ACCGGA | 2.056 ± 0.0065 | 2.042 ± 0.013
100 | ACCGGU | 2.068 ± 0.0071 | 2.052 ± 0.015
101 | ACCGGG | 2.068 ± 0.0057 | 2.06 ± 0.053
102 | ACCGGC | 2.1359 ± 0.0014 | 2.085 ± 0.015
103 | CCCUAU | 2.0351 ± 0.0014 | 2.05 ± 0.038
104 | CCCUAG | 2.018 ± 0.004 | 2.045 ± 0.0096
105 | CCCUAA | 2.0445 ± 0.00066 | 2.039 ± 0.015
106 | CCCUAC | 2.07 ± 0.025 | 2.085 ± 0.019
107 | ACCUUC | 2.038 ± 0.014 | 2.04 ± 0.045
108 | ACCUUG | 1.953 ± 0.0055 | 1.999 ± 0.011
109 | ACCUUA | 2.045 ± 0.009 | 2.041 ± 0.017
110 | GCCCGC | 2.0838 ± 0.0006 | 2.08 ± 0.03
111 | GCCCGA | 2.0343 ± 0.0013 | 2.04 ± 0.041
112 | GCCCGU | 2.0126 ± 0.0014 | 2.007 ± 0.0028
113 | GCCCGG | 2.089 ± 0.005 | 2.02 ± 0.035
114 | UCCUUC | 2.084 ± 0.002 | 2.05 ± 0.035
115 | UCCUUA | 2.015 ± 0.013 | 2.05 ± 0.0049
